From article PMC4632003, “Mitofilin and CHCHD6 physically interact with Sam50 to sustain cristae structure” (Scientific Reports, 2015)

T1: GST-tagged Sam50 (Homo sapiens (Human), UniProt Q9Y512)
T1 chain: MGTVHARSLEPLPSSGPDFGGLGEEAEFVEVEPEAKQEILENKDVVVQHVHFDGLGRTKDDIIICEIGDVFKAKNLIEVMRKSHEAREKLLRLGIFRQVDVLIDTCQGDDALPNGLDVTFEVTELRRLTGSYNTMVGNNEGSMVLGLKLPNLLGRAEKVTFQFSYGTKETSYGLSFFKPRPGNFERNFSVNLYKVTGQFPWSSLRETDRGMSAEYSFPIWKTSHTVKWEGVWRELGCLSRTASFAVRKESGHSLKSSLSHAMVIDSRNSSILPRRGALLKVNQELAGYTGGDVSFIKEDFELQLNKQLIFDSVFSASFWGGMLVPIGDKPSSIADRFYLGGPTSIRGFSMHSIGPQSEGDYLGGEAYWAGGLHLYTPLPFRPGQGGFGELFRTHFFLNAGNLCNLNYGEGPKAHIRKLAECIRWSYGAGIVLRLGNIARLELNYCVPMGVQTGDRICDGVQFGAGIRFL

T2: His-tagged Mitofilin 123-758 (human, UniProt Q16891 123-758)
T2 construct: Mitofilin, human, residues 123-758, cloned into pET-28a; The methods of the pull-down name 'GST-Mitofilin' where results, legend and plasmids say His-tagged Mitofilin 123-758; its purification is not described; also called His-Mitofilin^123–758; source: E. coli
T2 sequence (looked up): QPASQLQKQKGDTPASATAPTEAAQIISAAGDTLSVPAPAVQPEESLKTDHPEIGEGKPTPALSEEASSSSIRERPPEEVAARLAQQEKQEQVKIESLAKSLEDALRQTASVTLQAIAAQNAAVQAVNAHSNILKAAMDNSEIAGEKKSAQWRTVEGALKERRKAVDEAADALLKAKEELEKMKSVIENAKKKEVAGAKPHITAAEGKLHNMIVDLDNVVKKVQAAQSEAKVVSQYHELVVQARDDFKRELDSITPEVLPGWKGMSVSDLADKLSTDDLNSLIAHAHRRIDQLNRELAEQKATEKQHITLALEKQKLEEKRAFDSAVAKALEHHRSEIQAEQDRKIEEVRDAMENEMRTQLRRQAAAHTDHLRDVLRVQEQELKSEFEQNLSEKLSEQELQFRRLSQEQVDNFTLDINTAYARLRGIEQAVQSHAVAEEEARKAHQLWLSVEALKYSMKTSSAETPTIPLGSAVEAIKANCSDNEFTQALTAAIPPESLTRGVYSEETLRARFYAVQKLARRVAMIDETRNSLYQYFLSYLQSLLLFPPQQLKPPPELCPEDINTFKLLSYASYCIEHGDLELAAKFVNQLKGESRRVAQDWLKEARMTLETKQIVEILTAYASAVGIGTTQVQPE

B1: His-tagged CHCHD6 CΔ46 variant (protein)
chain: MGSTESSEGRRVSFGVDEEERVRVLQGVRLSENVVNRMKEPSSPPPAPTSSTFGLQDGNLRAPHKESTLPRSGSSGGQQPSGMKEGVKRYEQEHAAIQDKLFQVAKREREAATKHSKASLPTGEGSISHEEQKSVRLARELESREAELRRRDTFYKEQLERIERKNAEMYKLSSEQFHEAASKMESTIK
B2: His-tagged full-length CHCHD6 (natural protein, human, UniProt Q9BRQ6 1-235, looked up)
chain: MGSTESSEGRRVSFGVDEEERVRVLQGVRLSENVVNRMKEPSSPPPAPTSSTFGLQDGNLRAPHKESTLPRSGSSGGQQPSGMKEGVKRYEQEHAAIQDKLFQVAKREREAATKHSKASLPTGEGSISHEEQKSVRLARELESREAELRRRDTFYKEQLERIERKNAEMYKLSSEQFHEAASKMESTIKPRRVEPVCSGLQAQILHCYRDRPHEVLLCSDLVKAYQRCVSAAHKG
notes: CHCHD6, human, full length, cloned into pET-28a; also called His-CHCHD6; source: E. coli (BL21), purified (Nickel-NTA agarose)
B3: His-tagged CHCHD6 NΔ15 variant (domain or fragment, human, UniProt Q9BRQ6 16-235, looked up)
chain: VDEEERVRVLQGVRLSENVVNRMKEPSSPPPAPTSSTFGLQDGNLRAPHKESTLPRSGSSGGQQPSGMKEGVKRYEQEHAAIQDKLFQVAKREREAATKHSKASLPTGEGSISHEEQKSVRLARELESREAELRRRDTFYKEQLERIERKNAEMYKLSSEQFHEAASKMESTIKPRRVEPVCSGLQAQILHCYRDRPHEVLLCSDLVKAYQRCVSAAHKG
notes: CHCHD6, human, deletion variant that lacks the N-terminal 15 amino acids; cloned into pET-28a; source: E. coli (BL21), purified (Nickel-NTA agarose); not shown: His tag, N-terminal, kept
B4: GST-tagged Sam50 (natural protein, human, UniProt Q9Y512 1-469, looked up)
chain: T1 chain
notes: Sam50, human, full-length cDNA cloned into pGEX-6P-1; also called GST-Sam50; source: E. coli (BL21), purified (glutathione agarose)

Assays:
GST-tagged Sam50 [1] = target: T1, GST-tagged Sam50; assay: GST pull-down
GST-tagged Sam50 [2] = target: B4; assay: pull-down; GST pull-down: 10 μg purified GST-tagged protein, 10 μg His-tagged protein and glutathione Sepharose 4B in 1 ml PBS with protease inhibitor, overnight at 4 °C, washed five times with cold PBS; Western blot; conditions: both partners purified
[3] = target: T2, His-tagged Mitofilin 123-758; assay: as above; conditions: both partners purified

binding result (GST-tagged Sam50 [1]) | binding result (GST-tagged Sam50 [2]) | binding result [3] | Binder
no binding | – | – | B1
binds | binds | – | B2
binds | binds | – | B3
– | – | binds | B4
